Results: the supplement of paper PMC11246515
± gives the standard deviation of the averaged measurements.

Assay: total protein half-life in vivo (active degradation + dilution); higher = more stable protein
[1] = E. coli NCM3722 delta-clpP delta-lon delta-hslV, growth: N-lim chemostat, doubling time 6 h
[2] = E. coli NCM3722 delta-clpP, growth: N-lim chemostat, doubling time 6 h
[3] = E. coli NCM3722 delta-lon, growth: N-lim chemostat, doubling time 6 h
[4] = E. coli NCM3722 delta-smpB, growth: N-lim chemostat, doubling time 6 h
[5] = wild type E. coli NCM3722, growth: C-lim chemostat, doubling time 3 h
[6] = wild type E. coli NCM3722, growth: C-lim chemostat, doubling time 6 h
[7] = wild type E. coli NCM3722, growth: N-lim chemostat, doubling time 6 h
[8] = wild type E. coli NCM3722, growth: N-lim chemostat, doubling time 12 h
[9] = wild type E. coli NCM3722, growth: P-lim chemostat, doubling time 6 h
[10] = wild type E. coli NCM3722, growth: P-lim chemostat, doubling time 12 h
[11] = wild type E. coli NCM3722, growth: C-lim chemostat, doubling time 12 h
[12] = E. coli NCM3722 delta-hslV, growth: N-lim chemostat, doubling time 6 h

For “MGQLIDGVWHDTWYDTKSTGGKFQRSASAFRNWLTADGAPGPTGTGGFIAEKDRYHLYVSLACPWAHRTLIMRKLKGLEPFISVSVVNPLMLENGWTFDDSFPGATGDTLYQNEFLYQLYLHADPHYSGRVTVPVLWDKKNHTIVSNESAEIIRMFNTAFDALGAKAGDYYPPALQTKIDELNGWIYDTVNNGVYKAGFATSQEAYDEAVAKVFESLARLEQILGQHRYLTGNQLTEADIRLWTTLVRFDPVYVTHFKCDKHRISDYLNLYGFLRDIYQMPGIAETVNFDHIRNHYFRSHKTINPTGIISIGPWQDLDEPHGRDVRFG”, the “total protein half-life in vivo” value [1] was 6.05 ± 0.31 h, the “total protein half-life in vivo” value [2] was 4.89 ± 0.16 h and the “total protein half-life in vivo” value [3] was 5.03 ± 0.45 h. The “total protein half-life in vivo” value [4] was 5.01 ± 0.34 h, the “total protein half-life in vivo” value [5] was 3.53 ± 0.54 h and the “total protein half-life in vivo” value [6] was 5.64 ± 0.061 h. The “total protein half-life in vivo” value [7] was 5.04 ± 0.15 h, the “total protein half-life in vivo” value [8] was 8.28 ± 0.38 h and the “total protein half-life in vivo” value [9] was 5.99 ± 0.58 h. For the same sequence, the “total protein half-life in vivo” value [10] was 12.3 ± 0.26 h.
For “MHVLNILWVVFGIGLMLVLNLKFKINSMVALLVAALSVGMLAGMDLMSLLHTMKAGFGNTLGELAIIVVFGAVIGKLMVDSGAAHQIAHTLLARLGLRYVQLSVIIIGLIFGLAMFYEVAFIMLAPLVIVIAAEAKIPFLKLAIPAVAAATTAHSLFPPQPGPVALVNAYGADMGMVYIYGVLVTIPSVICAGLILPKFLGNLERPTPSFLKADQPVDMNNLPSFGVSILVPLIPAIIMISTTIANIWLVKDTPAWEVVNFIGSSPIAMFIAMVVAFVLFGTARGHDMQWVMNAFESAVKSIAMVILIIGAGGVLKQTIIDTGIGDTIGMLMSHGNISPYIMAWLITVLIRLATGQGVVSAMTAAGIISAAILDPATGQLVGVNPALLVLATAAGSNTLTHINDASFWLFKGYFDLSVKDTLKTWGLLELVNSVVGLIIVLIISMVA [P0AC94]”, the “total protein half-life in vivo” value [5] was 2.92 ± 1.2 h, the “total protein half-life in vivo” value [6] was 6.04 ± 0.1 h and the “total protein half-life in vivo” value [11] was 13.5 h.
With “MMSQPAKVLLLYAHPESQDSVANRVLLKPATQLSNVTVHDLYAHYPDFFIDIPREQALLREHEVIVFQHPLYTYSCPALLKEWLDRVLSRGFASGPGGNQLAGKYWRSVITTGEPESAYRYDALNRYPMSDVLRPFELAAGMCRMHWLSPIIIYWARRQSAQELASHARAYGDWLANPLSPGGR [P0A756]” the “total protein half-life in vivo” value [1] was 5.94 ± 0.44 h, the “total protein half-life in vivo” value [2] was 5.15 ± 0.59 h and the “total protein half-life in vivo” value [12] was 5.89 ± 0.62 h. The “total protein half-life in vivo” value [3] was 5.99 ± 0.26 h, the “total protein half-life in vivo” value [4] was 5.51 ± 0.33 h and the “total protein half-life in vivo” value [5] was 2.94 ± 0.079 h. For the same sequence, the “total protein half-life in vivo” value [6] was 5.7 ± 1.1 h, the “total protein half-life in vivo” value [11] was 10.6 ± 2.5 h and the “total protein half-life in vivo” value [7] was 5.63 ± 0.52 h. For the same sequence, the “total protein half-life in vivo” value [8] was 10.74 ± 0.04 h, the “total protein half-life in vivo” value [9] was 5.239 ± 0.0081 h and the “total protein half-life in vivo” value [10] was 10.6 ± 0.47 h.
In the case of “MADNKPELQRGLEARHIELIALGGTIGVGLFMGAASTLKWAGPSVLLAYIIAGLFVFFIMRSMGEMLFLEPVTGSFAVYAHRYMSPFFGYLTAWSYWFMWMAVGISEITAIGVYVQFWFPEMAQWIPALIAVALVALANLAAVRLYGEIEFWFAMIKVTTIIVMIVIGLGVIFFGFGNGGQSIGFSNLTEHGGFFAGGWKGFLTALCIVVASYQGVELIGITAGEAKNPQVTLRSAVGKVLWRILIFYVGAIFVIVTIFPWNEIGSNGSPFVLTFAKIGITAAAGIINFVVLTAALSGCNSGMYSCGRMLYALAKNRQLPAAMAKVSRHGVPVAGVAVSIAILLIGSCLNYIIPNPQRVFVYVYSASVLPGMVPWFVILISQLRFRRAHKAAIASHPFRSILFPWANYVTMAFLICVLIGMYFNEDTRMSLFVGIIFMLAVTAIYKVFGLNRHGKAHKLEE”, the “total protein half-life in vivo” value [1] is reported as 6.95 h, the “total protein half-life in vivo” value [12] is reported as 6.01 ± 0.26 h and the “total protein half-life in vivo” value [3] is reported as 5.41 ± 0.71 h. For the same sequence, the “total protein half-life in vivo” value [4] was 5.99 ± 1.1 h, the “total protein half-life in vivo” value [6] was 6.82 ± 0.17 h and the “total protein half-life in vivo” value [11] was 10.7 h. For the same sequence, the “total protein half-life in vivo” value [7] was 5.01 h, the “total protein half-life in vivo” value [8] was 11.7 h and the “total protein half-life in vivo” value [9] was over 8 h. For the same sequence, the “total protein half-life in vivo” value [10] was 12.7 ± 2.9 h.
For “MTTMNPFLVQSTLPYLAPHFDQIANHHYRPAFDEGMQQKRAEIAAIALNPQMPDFNNTILALEQSGELLTRVTSVFFAMTAAHTNDELQRLDEQFSAELAELANDIYLNGELFARVDAVWQRRESLGLDSESIRLVEVIHQRFVLAGAKLAQADKAKLKVLNTEAATLTSQFNQRLLAANKSGGLVVNDIAQLAGMSEQEIALAAEAAREKGLDNKWLIPLLNTTQQPALAEMRDRATREKLFIAGWTRAEKNDANDTRAIIQRLVEIRAQQATLLGFPHYAAWKIADQMAKTPEAALNFMREIVPAARQRASDELASIQAVIDKQQGGFSAQPWDWAFYAEQVRREKFDLDEAQLKPYFELNTVLNEGVFWTANQLFGIKFVERFDIPVYHPDVRVWEIFDHNGVGLALFYGDFFARDSKSGGAWMGNFVEQSTLNKTHPVIYNVCNYQKPAAGEPALLLWDDVITLFHEFGHTLHGLFARQRYATLSGTNTPRDFVEFPSQINEHWATHPQVFARYARHYQSGAAMPDELQQKMRNASLFNKGYEMSELLSAALLDMRWHCLEENEAMQDVDDFELRALVAENMDLPAIPPRYRSSYFAHIFGGGYAAGYYAYLWTQMLADDGYQWFVEQGGLTRENGLRFREAILSRGNSEDLERLYRQWRGKAPKIMPMLQHRGLNI”, the “total protein half-life in vivo” value [1] was 5.48 ± 0.74 h, the “total protein half-life in vivo” value [2] was 4.67 ± 0.22 h and the “total protein half-life in vivo” value [12] was 4.335 ± 0.038 h. For the same sequence, the “total protein half-life in vivo” value [3] was 4.65 ± 0.16 h, the “total protein half-life in vivo” value [4] was 4.43 ± 0.24 h and the “total protein half-life in vivo” value [5] was 3.13 ± 0.13 h. The “total protein half-life in vivo” value [6] was 5.67 ± 0.52 h, the “total protein half-life in vivo” value [11] was 9.87 ± 0.43 h and the “total protein half-life in vivo” value [7] was 4.53 ± 0.2 h. For the same sequence, the “total protein half-life in vivo” value [8] was 7.84 ± 0.66 h, the “total protein half-life in vivo” value [9] was 6.12 ± 0.066 h and the “total protein half-life in vivo” value [10] was 11.7 ± 0.94 h.
For “MAIKKRSATVVPGASGAAAAVKNPQASKTSFWGELPQHVMSGISRMVPTLIMGGVILAFSQLIAYSWLKIPAEIGIMDALNSGKFSGFDLSLLKFAWLSQSFGGVLFGFAIPMFAAFVANSIGGKLAFPAGFIGGLMSTQPTQLLNFDPSTMQWATSSPVPSTFIGALIISIVAGYLVKWMNQKIQLPDFLLAFKTTFLLPILSAIFVMLAMYYVITPFGGWINGGIRTVLTAAGEKGALMYAMGIAAATAIDLGGPINKAAGFVAFSFTTDHVLPVTARSIAIVIPPIGLGLATIIDRRLTGKRLFNAQLYPQGKTAMFLAFMGISEGAIPFALESPITAIPSYMVGAIVGSTAAVWLGAVQWFPESAIWAWPLVTNLGVYMAGIALGAVITALMVVFLRLMMFRKGKLLIDSL”, the “total protein half-life in vivo” value [5] was 2.72 h, the “total protein half-life in vivo” value [6] was 4.59 ± 0.42 h and the “total protein half-life in vivo” value [11] was 6.4 h.
With “MIKRNLPLMITIGVFVLGYLYCLTQFPGFASTRVICNILTDNAFLGIIAVGMTFVILSGGIDLSVGSVIAFTGVFLAKVIGDFGLSPLLAFPLVLVMGCAFGAFMGLLIDALKIPAFIITLAGMFFLRGVSYLVSEESIPINHPIYDTLSSLAWKIPGGGRLSAMGLLMLAVVVIGIFLAHRTRFGNQVYAIGGNATSANLMGISTRSTTIRIYMLSTGLATLAGIVFSIYTQAGYALAGVGVELDAIASVVIGGTLLSGGVGTVLGTLFGVAIQGLIQTYINFDGTLSSWWTKIAIGILLFIFIALQRGLTVLWENRQSSPVTRVNIAQQ” the “total protein half-life in vivo” value [5] was 3.66 h and the “total protein half-life in vivo” value [6] was 6.05 h.
